Values of other authors as cited in PMC8391295.

Molecular target: CD4 (Homo sapiens) (UniProt P01730)

Sequence of Prolactin-inducible protein (P12273 29-146): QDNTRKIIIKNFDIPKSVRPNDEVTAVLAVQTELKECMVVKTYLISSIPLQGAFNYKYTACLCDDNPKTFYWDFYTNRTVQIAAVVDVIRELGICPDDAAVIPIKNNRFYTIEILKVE

Kd: 6 nM
Substance: Prolactin-inducible protein (from UniProt P12273)
